Results from patent US20090098103A1.

Tests used:
Test in all cases: cell-based or functional assay
[1] = molecular target: FVIIa variant CB692 K197E/G237V/M298Q/K341Q (human) (UniProt P08709)
[2] = molecular target: FVIIa variant CB688 K197E/K199E (human) (UniProt P08709)
[3] = molecular target: FVIIa variant CB594 V158D/E296V/M298Q/K337A (human) (UniProt P08709)
[4] = molecular target: FVIIa variant CB587 D196K/K197E/K199E (human) (UniProt P08709)
[5] = molecular target: FVIIa variant CB588 D196R/K197E/K199E/R290E (human) (UniProt P08709)
[6] = molecular target: FVIIa variant CB614 D196W/K197L (human) (UniProt P08709)
[7] = molecular target: FVIIa variant CB560 K197L (human) (UniProt P08709)
[8] = molecular target: FVIIa variant CB599 K197M (human) (UniProt P08709)
[9] = molecular target: FVIIa variant CB694 K199E/K341Q (human) (UniProt P08709)
[10] = molecular target: FVIIa variant CB611 D196L/K197L (human) (UniProt P08709)
[11] = molecular target: FVIIa variant CB558 K197E (human) (UniProt P08709)
[12] = molecular target: FVIIa variant CB567 R290E (human) (UniProt P08709)
[13] = molecular target: FVIIa variant CB562 K199D (human) (UniProt P08709)
[14] = molecular target: FVIIa variant CB593 V158D/E296V/M298Q (human) (UniProt P08709)
[15] = molecular target: FVIIa variant CB671 K197E/G237V/K341Q (human) (UniProt P08709)
[16] = molecular target: FVIIa variant CB604 D196I (human) (UniProt P08709)
[17] = molecular target: FVIIa variant CB568 R290A (human) (UniProt P08709)
[18] = molecular target: wild-type Factor VII polypeptide (CB553-02), activated (FVIIa) (human) (UniProt P08709)
[19] = molecular target: FVIIa variant CB554 D196K (human) (UniProt P08709)
[20] = molecular target: FVIIa variant CB689 K197E/G237V (human) (UniProt P08709)
[21] = molecular target: FVIIa variant CB598 K197W (human) (UniProt P08709)
[22] = molecular target: FVIIa variant CB561 K197Y (human) (UniProt P08709)
[23] = molecular target: FVIIa variant CB602 D196W (human) (UniProt P08709)
[24] = molecular target: FVIIa variant CB563 K199E (human) (UniProt P08709)
[25] = molecular target: FVIIa variant CB592 M298Q (human) (UniProt P08709)
[26] = molecular target: FVIIa variant CB605 G237W (human) (UniProt P08709)
[27] = molecular target: FVIIa variant CB581 D196R/R290D (human) (UniProt P08709)
[28] = molecular target: FVIIa variant CB701 R290V (human) (UniProt P08709)
[29] = molecular target: FVIIa variant CB670 G237V/K341Q (human) (UniProt P08709)

TFPI fold resistance (fold vs wild-type FVIIa) [1]: 15.2
TFPI fold resistance (fold vs wild-type FVIIa) [2]: 2.1
IC50 of TFPI inhibition of FVIIa/TF [3]: 0.022 µM
TFPI fold resistance (fold vs wild-type FVIIa) [3]: 0.3
pIC50 of TFPI inhibition of FVIIa/TF [3]: 7.7
IC50 of TFPI inhibition of FVIIa/TF [4]: 0.02 µM
TFPI fold resistance (fold vs wild-type FVIIa) [4]: 0.3
pIC50 of TFPI inhibition of FVIIa/TF [4]: 7.7
IC50 of TFPI inhibition of FVIIa/TF [5]: 0.028 µM
TFPI fold resistance (fold vs wild-type FVIIa) [5]: 0.4
pIC50 of TFPI inhibition of FVIIa/TF [5]: 7.6
TFPI fold resistance (fold vs wild-type FVIIa) [6]: < 0.3
IC50 of TFPI inhibition of FVIIa/TF [7]: 1.1 µM
TFPI fold resistance (fold vs wild-type FVIIa) [7]: 16
pIC50 of TFPI inhibition of FVIIa/TF [7]: 5.9
TFPI fold resistance (fold vs wild-type FVIIa) [8]: 0.3
TFPI fold resistance (fold vs wild-type FVIIa) [9]: 19.1
TFPI fold resistance (fold vs wild-type FVIIa) [10]: < 0.3
IC50 of TFPI inhibition of FVIIa/TF [11]: 0.31 µM
TFPI fold resistance (fold vs wild-type FVIIa) [11]: 1.3
pIC50 of TFPI inhibition of FVIIa/TF [11]: 6.5
IC50 of TFPI inhibition of FVIIa/TF [12]: 0.44 µM
TFPI fold resistance (fold vs wild-type FVIIa) [12]: 6.1
pIC50 of TFPI inhibition of FVIIa/TF [12]: 6.4
IC50 of TFPI inhibition of FVIIa/TF [13]: 0.063 µM
TFPI fold resistance (fold vs wild-type FVIIa) [13]: 0.9
pIC50 of TFPI inhibition of FVIIa/TF [13]: 7.2
IC50 of TFPI inhibition of FVIIa/TF [14]: 0.041 µM
TFPI fold resistance (fold vs wild-type FVIIa) [14]: 0.8
pIC50 of TFPI inhibition of FVIIa/TF [14]: 7.4
TFPI fold resistance (fold vs wild-type FVIIa) [15]: 18.9
TFPI fold resistance (fold vs wild-type FVIIa) [16]: < 0.3
IC50 of TFPI inhibition of FVIIa/TF [17]: 0.2 µM
TFPI fold resistance (fold vs wild-type FVIIa) [17]: 2.8
pIC50 of TFPI inhibition of FVIIa/TF [17]: 6.7
IC50 of TFPI inhibition of FVIIa/TF [18]: 0.088 µM
TFPI fold resistance (fold vs wild-type FVIIa) [18]: 1
pIC50 of TFPI inhibition of FVIIa/TF [18]: 7.1
IC50 of TFPI inhibition of FVIIa/TF [19]: 0.045 µM
TFPI fold resistance (fold vs wild-type FVIIa) [19]: 0.6
pIC50 of TFPI inhibition of FVIIa/TF [19]: 7.4
TFPI fold resistance (fold vs wild-type FVIIa) [20]: 1.7
TFPI fold resistance (fold vs wild-type FVIIa) [21]: < 0.3
IC50 of TFPI inhibition of FVIIa/TF [22]: 0.11 µM
TFPI fold resistance (fold vs wild-type FVIIa) [22]: 1.5
pIC50 of TFPI inhibition of FVIIa/TF [22]: 7
TFPI fold resistance (fold vs wild-type FVIIa) [23]: < 0.3
IC50 of TFPI inhibition of FVIIa/TF [24]: 0.033 µM
TFPI fold resistance (fold vs wild-type FVIIa) [24]: 1.3
pIC50 of TFPI inhibition of FVIIa/TF [24]: 7.5
IC50 of TFPI inhibition of FVIIa/TF [25]: 0.035 µM
TFPI fold resistance (fold vs wild-type FVIIa) [25]: 0.5
pIC50 of TFPI inhibition of FVIIa/TF [25]: 7.5
TFPI fold resistance (fold vs wild-type FVIIa) [26]: < 0.3
IC50 of TFPI inhibition of FVIIa/TF [27]: 0.032 µM
TFPI fold resistance (fold vs wild-type FVIIa) [27]: 0.4
pIC50 of TFPI inhibition of FVIIa/TF [27]: 7.5
TFPI fold resistance (fold vs wild-type FVIIa) [28]: 2.5
TFPI fold resistance (fold vs wild-type FVIIa) [29]: 14.1
Substance: Human Recombinant TFPI (R&D Systems) (from UniProt P10646 29-282)
